Results as given in the DeepSol protein solubility set.

experiment: soluble on expression in E. coli; label from the status in PepcDB or PDB records

Sequence | soluble on expression in E. coli
MAHHHHHHMQRQVIRRLGNRSAFPLVAAVARSSQIRGAVRGDSGSRARVIPSFMCSLRAYSGGHHEEPSSRSGQYLLDKSDVLTRVLEVVKNFEKVDASKVTPESHFVKDLGLNSLDVVEVVFAIEQEFILDIPDHDAEKIQSIPDAVEYIAQNPMAK | soluble
SSEQTLEYFLNKGTIRRKDAADIEWYHAANSKSKLMEALRGSAQMIEADVLLRGADPEEPIMAHPPAKDSDITLQDWLKEVVKTDKGIKLDFKSLAAVSQSMSLLEEIRDQLKGPVWINADILPGPGGTATPVDPHVFLQEVAQRSENDVLSLGWTTGWTANVDNPGYSWEMVHQMEELCRPLKQPVTFPVRASLLPMSFPQFQWLLEQSDRSEILH | soluble
MGSDKIHHHHHHMLLVFASCGVNKSTEDSKKTNETKVEQIATLSAGTPVQSLDPATAVDQTSVTLLANVMEGLYRLDEKNQPQPAIAAGQPKISNGGKTYTIVIRDGAKWADGTDITADDFVTAWQRVLDPKTASPNVELFAAIKNAKEISIGKQQKETLGVKSKGNKTIEIELEEPTPYFTDLLALTAYFPVQQNAVKEYGKEYGTTKENIVTNGAFTLTDLNGVGISDKWTIAKNPKYWDKKHVAMEKIKFQVVKDINTGINLYNDGQLDDAPVAGEYSKQLENNKDFIRELSATTMFLEVNQRNKKSITSNKHARQAINFAIDREAISNKILTNGSIPAKGVVPSKLVYNPKTGKDFTNSSLVFLDKSKAKDSWEKAKKELKGTDLSIDIMVNEEDLSKKLGEYLQNELQDTLDGLKVSVTAVPATLQTERLNSGNFMIALSGWQADFADPVSFLANFESKSSLNHGGYANEEYDKLLKNNSSKRLQELKDAEKLILEDAGVIPLLQIGNAKLRNQKISEMKVHSIGAKYDYKTMEIK | not soluble
MTARYIAIDWGSTNLRAWLYQGEECLESRQSEAGVTRLNGRSPAAVLAEITQHWRDGATPVVMAGMVGSNVGWKIAPYLPLPAAFSDIGQQLTAVGDNIWIIPGLCVSRDDNHNVMRGEETQLLGARALAPSSVYVMPGTHCKWVLADRRQIHDFRTVLTGELHHLLLQLSLVGAGLPPQETSAAAFAAGLQRGINNPAVLPQLFEVRASHVLGALPREQVSEFLSGLLIGAEVATLSDTFAGQQAISLVAGSSLTSRYQQAFAAIGREVSAVAGDTAFQTGIRSIAYAVAN | soluble
MAKKVAICTLLYSRDYLPGALTLAYQLQKLLKHAVVEDEITLCLLIEKKLFGDEFKPQEIALIRSLFKEIIIIEPLKDQEKSIEKNKANLELLKRPELSHTLLKARLWELVQFDQVLFLDADTLPLNKEFFEILRLYPEQTRFQIAAVPDIGWPDMFNTGVLLLIPDLDMATSLQDFLIKTVSIDGADQGIFNQFFNPICNYSKEVLHKVSPLMEWIRLPFTYNVTMPNYGYQSSPAMNFFQQHIRLIHFIGTFKPWSRNTTDYDDHYYQLWRSTQRELYSECHLSNYFTHLQLGNIETETNFYHEPPCLQDLLNHGKRENQKHVDLDITSVDRNASQKSTAEKHDIEKPTSKPQSAFKFDWESTDYLDRVQRAFPKPDT | soluble
MCIAIPGKMTAIVDENTATIDMGGICRDVNMALMGGAEESMIGKHFLVHVGYAISEISEEESEETMRLLKIMAGLEEIDSFENESQ | not soluble
MQVIKTNETFDSLDKSKLERMLDIKEAHREGHLTLEEAKERMKKEVGSISPEEFAAAEQLFKERDQDECQNEDVRTMLQLFEGLINPIRPDLPFGHPIDAYLRENDKAKELLDQADALLERTFIPNPWIELMETLMGYKLHFARKQNQLYSTLEQKGFDRPSTTMWTYDDHIRDEMNKAMSLLREKDYDSFPAAYKEMAIVLRDLMEKEELILYPTSLKLISDKEFEEMKHGDREIGFFLIDMPELDAPAKQSKEAHGQSFMAELGALLAKHGMGTGGQDDKAILDVAEGKLTLEQINLLFRHLPVDISFVDENELVCFYTDTKHRVFPRSKGVIGREVRNCHPPKSVHIVEEIIDKFRRGEQDRAEFWINKPGVFIYIVYVAIRDADGRFRGVMEMMQDCTRIRSLEGSRTLLTWDEEQSPAQGSKESESDTAGEDGIRPDTKLKSLLQRYPQLMDDLPTISSKFTLLRSPMAKVILPVATIKMMSERADIPSDMLIGKLESLIASYNKPDRSEEK | not soluble
EGSENLFITGDNLEALKLLQESYLGKIDMIYIDPPYNTGKDFVYQDNFKKTKKENDLSEGILDEEGDRLVKNEKSNGRYHSDWLTMIYPRLKLARNLLSDSGIIFVSIDENEIANLELLLTEIFGENNLAGTIVWDKRNPKGDSKGVSMQHEYIVAAAKNINIFSEFKEFKRPKKNAEIIL | not soluble
MGSDKIHHHHHHMKHYALLISFLALSACSQGSEDLNEWMAQTRREAKAEIIPFQAPTLPVAPVYSPPQLTGPNAFDFRRMETDKKGENAPDTKRIKETLEKFSLENMRYVGILKSGQKVSGFIEAEGYVYTVGVGNYLGQNYGRIESITDDSIVLNELIEDSTGNWVSRKAELLLNSSDKNTEQAAAPAAEQN | not soluble
MHKRFAALAAPLLYLACASAQADTMRCGSALVSVGDRAFEVQQKCGDPDHRDDVGYTLGSYDRREFKVEEWVYGPRNGVTYILTFEANKLKRIEFKR | not soluble
GVNPRGLGPLQIWQTDFTLEPRMAPRSWLAVTVDTASSAIVVTQHGRVTSVAVQHHWATAIAVLGRPKAIKTDNGSCFTSKSTREWLARWGIAHTTGIPGNSQGQAMVERANRLLKDRIRVLAEGDGFMKRIPTSKQGELLAKAMYALNHKERGENTKTPIQKHWRPTVLTEGPPVKIRIETGEWEKGWNVLVWGRGYAAVKNRDTDKVIWVPSRKVKPDITQKDEVTKKDEASPLFA | soluble
MKLAKLIPKRFFIRSKDRSTVSKSPTAFSFGSASSSSGQDCKNSGGDGGGGSVTPTSILPEVPSPYSYVEILQAFKLIDRDNDGAVSRHDLESLLSRLGPDPLTEEEINVMLKEVDCDGDGTIRLEELASRVVSLDPARDSTELKETFEFFDADRDGLISADELLRVFSTIGDERCTLDDCKRMIADVDEDGDGFVCFTEFSRMMDLQR | soluble
RDSGTVWGALGHGINLNIPNFQMTDDIDEVRWERGSTLVAEFKRKMKPFLKSGAFEILANGDLKIKNLTRDDSGTYNVTVYSTNGTRILDKALDLRILE | soluble
MNRYDRAITIFSPDGHLFQVEYAQEAVKKGSTAVGVRGKDCIVIGVEKKSIPALQDDRTIRKIHMIDDHVMLAFAGLSADARVLVDRARIECQSYKLTLEDPVTVAYISRYIANTKQRFTQSPGRRPFGISMLIGGFDHDGTPRLFKTEPSGAYYEYVANATGRGEKPVREYLEEQYSEENTVDEATTLKLVVKSLAQVVPPGSQNIEIAVMKKVNDELQQRVLSTEEIEALLKVVETERVAAEAEEAASKKK | not soluble
MGSDKIHHHHHHMNKQEITSKIKEITETGAVCGVDVYVCLKGEEQGFYIEKMISMNSLKDRIRSIALEIINTQYLQDEVVYCDILDVIDNKKAVYVLEQSDEYKPFALLNDDSMDEVFNFDEKDIGNVLGFLFKINLNSKKLFIYQQAYVGSRLQAKNNLRIIQKDNVFEIVDKEMLKIDKRGELLILDNTILVRNVKVLQDFFGFQVFVRNQAQSVISKLEELDIIGNIATLKEYQTGEKLTISKKLMKVKNSPVLAMDKDELINKIPLVPRYKNIIHIENGKIRTNTKKDVDNLMKLLNDDYVKSELTDMEYDSTSKTLLNSESQDE | not soluble
SLERYIDGRAVKADIFDHPVSYNINEITHTDDVHEALTASLNKYGNVDMAYMESLTDKSQSDLLEELRGRIFYNPLSKNYEIADRFISGNVMAKAEHIEEYLQSHPDNGEARISLEALRQSLPAPIPFEDLDFNFGERWIPAGVYSRYASWLFDTDVSVRYTASSDEYSIRADMTSPRIMNQYSVRSESRIFNGIALMRHAIHNTTPNITKTVLDKTGKEMKIRDPEVTLLANSKIDEIRNGFSDWLMEQSPEFKRKMADMYNRKFNCFVRPKYDGSHQSFPGLDLKGLGIPDLYPSQ | not soluble
QLERGQEKQALEQAILARTDAPYQSLASVLDNNDWREESVIGVKVQAEAKPEPLPVVLLDNQTFQGKVGYLAYQVVSVGQDPITLALLELGFVEGLRTRDSLPTVTTLTSPTNVTGRLYRKSMNPLSSELMPEMGEGIRVQNLNISELNELLNVELMPAVLQPDNLENWAYPFPWNPLPLTSAKHFGYAVQ | not soluble
